Measured values reported in paper PMC10466376.

Columns and labels:
Experiment in all cases: potentiometry
[1] = biological target: Cterm29 (position 29, KGGKAH-----); details: 298 K; 0.1 M NaClO4; none (4 mM HClO4 / 100 mM NaClO4); metal-free peptide, 0.5 mM, disordered
Glu5 (position 5, -…) = details: 298 K; 0.1 M NaClO4; none (4 mM HClO4 / 100 mM NaClO4); metal-free peptide, 0.5 mM, disordered
[2] = biological target: Nterm1 (position 1, -----HNKQEG); details: 298 K; 0.1 M NaClO4; none (4 mM HClO4 / 100 mM NaClO4); metal-free peptide, 0.5 mM, disordered
[3] = biological target: Glu3 (position 3, ---KQEGRDHD); details: 298 K; 0.1 M NaClO4; none (4 mM HClO4 / 100 mM NaClO4); metal-free peptide, 0.5 mM, disordered
[4] = biological target: Nterm1 (position 1, -----KQEGRD); details: 298 K, 0.1 M NaClO4, none (4 mM HClO4 / 100 mM NaClO4)
[5] = biological target: Cterm15 (position 15, SKGHFH-----); details: 298 K; 0.1 M NaClO4; none (4 mM HClO4 / 100 mM NaClO4); metal-free peptide, 0.5 mM, disordered
[6] = biological target: Lys1 (position 1, -----KQEGRD); details: 298 K; 0.1 M NaClO4; none (4 mM HClO4 / 100 mM NaClO4); Zn(II)-bound peptide, mononuclear complex, Zn:peptide 1:1 (supplement captions state 0.9:1), peptide 0.5 mM
Lys11 (position 11, …-) = details: 298 K; 0.1 M NaClO4; none (4 mM HClO4 / 100 mM NaClO4); Zn(II)-bound peptide, mononuclear complex, Zn:peptide 1:1 (supplement captions state 0.9:1), peptide 0.5 mM
Lys9 (position 9, …) = details: 298 K; 0.1 M NaClO4; none (4 mM HClO4 / 100 mM NaClO4); Zn(II)-bound peptide, mononuclear complex, Zn:peptide 1:1 (supplement captions state 0.9:1), peptide 0.5 mM
[7] = metal-free peptide, 0.5 mM, disordered

For HNKQEGRDHDKSKGHFHRVVIHHKGGKAH [SgI-29, 29-residue fragment of semenogelin I (Homo sapiens)], the pKa [1] was 2.18, the pKa (Glu5 (position 5, -…)) was 3.74 and the pKa [2] was 9.45.

For KQEGRDHDKSKGHFHMIVIHHKGGQAHHG [SgIIA (SgII peptide A), 29-residue fragment of semenogelin II (Homo sapiens)], the pKa [3] was 4.26 and the pKa [4, 7] was 9.47.

KQEGRDHDKSKGHFH [Sg-15, 15-residue fragment common to semenogelin I and semenogelin II (Homo sapiens)] gave a pKa [5] of 2.34, a pKa [3] of 4.36 and a pKa [6] of 9.52. It also gave a pKa (Lys11 (position 11, …-)) of 10.59, a pKa (Lys9 (position 9, …)) of 10.40 and a pKa ([4]; Cu(II)-bound peptide, mononuclear complex, Cu:peptide 1:1 (supplement captions state 0.9:1), peptide 0.5 mM) of 6.82. For the same protein, the pKa ([4]; Zn(II)-bound peptide, mononuclear complex, Zn:peptide 1:1 (supplement captions state 0.9:1), peptide 0.5 mM) was 6.88 and the pKa [4, 7] was 7.58.
